One substance from PMC8334348 can be followed below.

The stoichiometry N is the number of molecules, sites or subunits per partner or assembly.

The target of the experiment is Brucella abortus peptidoglycan hydrolase inhibitor A (PhiA), mature periplasmic form (Brucella abortus). Kind of experiment: SEC-MALS. Background: Size exclusion chromatography separates by hydrodynamic size, large species first.

With “Brucella abortus peptidoglycan hydrolase inhibitor A (PhiA), mature periplasmic form (natural protein)”, the stoichiometry N worked out at 4.
